Measurements: patent publication US20130345129A1 (OTSUKA CHEMICAL, published 2013)
No end group written: not given here. asialo oligosaccharide = asialo (digalactose) oligosaccharide chain

T1: mouse GLP-1 receptor (mouse, UniProt O35659 22-463)
T1 sequence (looked up): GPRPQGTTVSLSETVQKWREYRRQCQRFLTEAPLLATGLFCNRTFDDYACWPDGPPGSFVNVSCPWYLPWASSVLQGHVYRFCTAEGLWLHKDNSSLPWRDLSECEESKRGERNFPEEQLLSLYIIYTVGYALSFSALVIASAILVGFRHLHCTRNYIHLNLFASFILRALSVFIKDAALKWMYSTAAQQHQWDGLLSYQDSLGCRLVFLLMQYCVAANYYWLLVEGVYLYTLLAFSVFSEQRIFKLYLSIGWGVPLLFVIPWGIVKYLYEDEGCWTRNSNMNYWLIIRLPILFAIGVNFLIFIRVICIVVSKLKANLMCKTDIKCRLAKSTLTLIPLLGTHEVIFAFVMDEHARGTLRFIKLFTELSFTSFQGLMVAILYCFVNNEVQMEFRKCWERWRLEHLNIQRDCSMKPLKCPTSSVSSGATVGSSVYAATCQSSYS

B1: 6Cys GLP-1-disialo (peptide)
peptide: CHAEGTFTSDVSSYLEGQAAKEFIAWLVKGRG
modifications: disialo oligosaccharide chain added Cys at position 6 (added before 7His; chain attached to Cys with bromoacetamidyl disialo oligosaccharide)

Target: T1, mouse GLP-1 receptor
Experiment: cell-based or functional assay

| Binder | Relative Activity (cAMP synthesis, EC50 relative to GLP-1 = 1) |
| --- | --- |
| HAEGTFTSDVSSYLEGQC(disialo oligosaccharide)AKEFIAWLVKGRG [24Cys GLP-1-disialo] | < 0.1 relative (GLP-1 = 1) |
| HAEGTFTSDVSSYLEGQAAKEC(disialo oligosaccharide)IAWLVKGRG [28Cys GLP-1-disialo] | < 0.1 relative (GLP-1 = 1) |
| HAEGTFTSDVSSYLEGQAAKEFIAWC(disialo oligosaccharide)VKGRG [32Cys GLP-1-disialo] | < 0.1 relative (GLP-1 = 1) |
| HAEGTFTSDVSSYLEGQAAC(asialo oligosaccharide)EFIAWLVKGRG [26Cys GLP-1-asialo] | 0.8 relative (GLP-1 = 1) |
| HC(disialo oligosaccharide)EGTFTSDVSSYLEGQAAKEFIAWLVKGRG [8Cys GLP-1-disialo] | < 0.1 relative (GLP-1 = 1) |
| HAC(disialo oligosaccharide)GTFTSDVSSYLEGQAAKEFIAWLVKGRG [9Cys GLP-1-disialo] | < 0.1 relative (GLP-1 = 1) |
| HAEGTFTSDVSSYLEC(disialo oligosaccharide)QAAKEFIAWLVKGRG [22Cys GLP-1-disialo] | 1 relative (GLP-1 = 1) |
| HAEGTFTSDVSSYC(disialo oligosaccharide)EGQAAKEFIAWLVKGRG [20Cys GLP-1-disialo] | < 0.1 relative (GLP-1 = 1) |
| HAEGTFTC(disialo oligosaccharide)DVSSYLEGQAAKEFIAWLVKGRG [14Cys GLP-1-disialo] | < 0.1 relative (GLP-1 = 1) |
| HAEC(disialo oligosaccharide)TFTSDVSSYLEGQAAKEFIAWLVKGRG [10Cys GLP-1-disialo] | < 0.1 relative (GLP-1 = 1) |
| HAEGTFTSDVSSYLEGQAAKEFIAWLVKGRGC (disialo oligosaccharide chain added Cys at position 38 (added after 37Gly)) [38Cys GLP-1-disialo] | 1.9 relative (GLP-1 = 1) |
| HAEGC(disialo oligosaccharide)FTSDVSSYLEGQAAKEFIAWLVKGRG [11Cys GLP-1-disialo] | < 0.1 relative (GLP-1 = 1) |
| HAEGTFTSDVSSYLEGQAAKC(disialo oligosaccharide)FIAWLVKGRG [27Cys GLP-1-disialo] | 0.2 relative (GLP-1 = 1) |
| HAEGTFTSDVSSYLEGQAAKEFIAWLVC(disialo oligosaccharide)GRG [34Cys GLP-1-disialo] | 0.7 relative (GLP-1 = 1) |
| HAEGTFTSDVSSYLEGQAAKEFIAWLVC(asialo oligosaccharide)GRG [34Cys GLP-1-asialo] | 2.2 relative (GLP-1 = 1) |
| HAEGTC(disialo oligosaccharide)TSDVSSYLEGQAAKEFIAWLVKGRG [12Cys GLP-1-disialo] | < 0.1 relative (GLP-1 = 1) |
| B1 | < 0.1 relative (GLP-1 = 1) |
| HAEGTFTSDVSSYLEGQAAC(disialo oligosaccharide)EFIAWLVKGRG [26Cys GLP-1-disialo] | 0.2 relative (GLP-1 = 1) |
| HAEGTFTSDVSSYLEGQAC(disialo oligosaccharide)KEFIAWLVKGRG [25Cys GLP-1-disialo] | < 0.1 relative (GLP-1 = 1) |
| HAEGTFTSDVSSYLEGQAAKEFIAWLVKGC(disialo oligosaccharide)G [36Cys GLP-1-disialo] | 1.9 relative (GLP-1 = 1) |
| HAEGTFTSDC(disialo oligosaccharide)SSYLEGQAAKEFIAWLVKGRG [16Cys GLP-1-disialo] | < 0.1 relative (GLP-1 = 1) |
| HAEGTFTSDVSSYLEGQAAKEFIC(disialo oligosaccharide)WLVKGRG [30Cys GLP-1-disialo] | 0.6 relative (GLP-1 = 1) |
| HAEGTFTSDVSC(disialo oligosaccharide)YLEGQAAKEFIAWLVKGRG [18Cys GLP-1-disialo] | < 0.1 relative (GLP-1 = 1) |
